Data taken from PMC9485624.

Legend:
[1] = target: recombinant truncated CrrB (135-353 amino acids) (Klebsiella pneumoniae); assay: not stated; purified recombinant His-tagged protein after Ni-NTA; how dimer and monomer were told apart is not stated in the text (Supplementary Figure S1)
[2] = target: recombinant truncated CrrB (135-353 amino acids) P151L mutant (Klebsiella pneumoniae); assay: as above

Row | Substance | stoichiometry N [1] | stoichiometry N [2]
1 | recombinant truncated CrrB (135-353 amino acids) (domain or fragment) | 2 | –
2 | recombinant truncated CrrB (135-353 amino acids) P151L mutant (domain or fragment) | – | 2
